What was measured:
Test in all cases: selective 80S ribosome footprinting
[1] = molecular target: eIF3B (human (endogenous in HeLa)) (UniProt P55884)
[2] = molecular target: eIF4E (human (endogenous in HeLa)) (UniProt P06730)
[3] = molecular target: eIF4G1 (human (endogenous in HeLa)) (UniProt Q04637)
Chain of UniProt Q04637 (Q04637 whole entry): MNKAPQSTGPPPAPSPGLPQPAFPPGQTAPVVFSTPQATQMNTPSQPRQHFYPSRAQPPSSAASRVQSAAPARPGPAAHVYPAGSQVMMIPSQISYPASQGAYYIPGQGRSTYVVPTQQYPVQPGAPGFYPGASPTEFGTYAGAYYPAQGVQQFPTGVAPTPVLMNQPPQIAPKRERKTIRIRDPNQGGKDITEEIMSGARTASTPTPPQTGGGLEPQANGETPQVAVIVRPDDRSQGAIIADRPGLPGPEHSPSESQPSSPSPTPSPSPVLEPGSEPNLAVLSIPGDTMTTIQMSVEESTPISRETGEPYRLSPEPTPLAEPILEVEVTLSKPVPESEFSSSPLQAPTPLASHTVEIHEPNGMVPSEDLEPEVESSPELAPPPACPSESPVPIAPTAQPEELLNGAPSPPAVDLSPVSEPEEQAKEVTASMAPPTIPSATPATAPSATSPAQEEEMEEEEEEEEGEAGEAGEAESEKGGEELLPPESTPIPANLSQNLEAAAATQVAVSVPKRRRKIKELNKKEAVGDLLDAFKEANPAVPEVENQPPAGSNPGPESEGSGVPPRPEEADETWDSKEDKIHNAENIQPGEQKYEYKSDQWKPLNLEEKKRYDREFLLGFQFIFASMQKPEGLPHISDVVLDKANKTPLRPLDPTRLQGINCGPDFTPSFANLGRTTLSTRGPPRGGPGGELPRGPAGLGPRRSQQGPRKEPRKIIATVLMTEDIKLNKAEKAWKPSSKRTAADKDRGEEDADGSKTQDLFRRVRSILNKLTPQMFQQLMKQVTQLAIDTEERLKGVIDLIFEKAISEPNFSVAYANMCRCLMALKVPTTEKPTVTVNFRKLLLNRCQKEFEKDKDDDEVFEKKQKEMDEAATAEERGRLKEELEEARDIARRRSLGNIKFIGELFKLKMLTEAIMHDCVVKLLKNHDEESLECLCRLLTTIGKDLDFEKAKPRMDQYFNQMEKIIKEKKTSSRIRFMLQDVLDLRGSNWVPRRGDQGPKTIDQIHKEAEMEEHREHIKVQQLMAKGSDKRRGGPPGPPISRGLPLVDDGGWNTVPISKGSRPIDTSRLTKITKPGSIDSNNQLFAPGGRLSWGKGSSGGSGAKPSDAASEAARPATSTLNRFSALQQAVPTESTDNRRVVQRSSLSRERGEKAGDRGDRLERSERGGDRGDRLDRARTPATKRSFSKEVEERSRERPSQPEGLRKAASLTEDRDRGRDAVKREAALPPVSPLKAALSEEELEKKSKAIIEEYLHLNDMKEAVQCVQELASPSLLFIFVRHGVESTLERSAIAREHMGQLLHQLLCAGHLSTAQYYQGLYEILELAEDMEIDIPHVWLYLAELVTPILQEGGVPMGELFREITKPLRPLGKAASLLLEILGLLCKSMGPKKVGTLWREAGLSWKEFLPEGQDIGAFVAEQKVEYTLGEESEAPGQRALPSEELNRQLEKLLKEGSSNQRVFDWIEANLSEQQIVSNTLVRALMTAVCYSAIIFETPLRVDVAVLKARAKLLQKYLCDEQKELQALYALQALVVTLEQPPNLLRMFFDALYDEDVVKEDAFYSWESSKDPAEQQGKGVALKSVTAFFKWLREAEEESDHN

Chain of UniProt P55884 (P55884 whole entry): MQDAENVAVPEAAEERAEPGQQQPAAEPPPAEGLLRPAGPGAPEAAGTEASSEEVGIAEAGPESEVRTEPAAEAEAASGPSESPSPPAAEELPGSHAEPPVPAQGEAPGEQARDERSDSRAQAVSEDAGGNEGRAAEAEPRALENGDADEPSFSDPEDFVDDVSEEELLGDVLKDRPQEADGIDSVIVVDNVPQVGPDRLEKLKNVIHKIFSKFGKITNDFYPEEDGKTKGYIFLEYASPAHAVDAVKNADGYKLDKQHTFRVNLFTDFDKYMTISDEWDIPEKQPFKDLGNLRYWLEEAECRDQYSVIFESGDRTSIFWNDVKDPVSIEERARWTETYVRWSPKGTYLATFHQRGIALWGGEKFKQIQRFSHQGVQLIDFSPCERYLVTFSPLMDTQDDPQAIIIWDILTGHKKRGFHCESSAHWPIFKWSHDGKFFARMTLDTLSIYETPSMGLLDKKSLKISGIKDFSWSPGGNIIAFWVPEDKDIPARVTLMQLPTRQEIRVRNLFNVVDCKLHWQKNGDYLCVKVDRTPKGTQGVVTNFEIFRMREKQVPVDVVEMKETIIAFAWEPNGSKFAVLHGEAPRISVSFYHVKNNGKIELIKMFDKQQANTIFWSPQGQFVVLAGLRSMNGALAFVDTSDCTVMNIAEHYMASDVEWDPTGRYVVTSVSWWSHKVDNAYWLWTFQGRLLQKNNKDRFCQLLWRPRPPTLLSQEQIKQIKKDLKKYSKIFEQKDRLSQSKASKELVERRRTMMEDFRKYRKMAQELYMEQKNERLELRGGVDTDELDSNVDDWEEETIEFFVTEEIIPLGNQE
Chain of UniProt P06730 (P06730 whole entry): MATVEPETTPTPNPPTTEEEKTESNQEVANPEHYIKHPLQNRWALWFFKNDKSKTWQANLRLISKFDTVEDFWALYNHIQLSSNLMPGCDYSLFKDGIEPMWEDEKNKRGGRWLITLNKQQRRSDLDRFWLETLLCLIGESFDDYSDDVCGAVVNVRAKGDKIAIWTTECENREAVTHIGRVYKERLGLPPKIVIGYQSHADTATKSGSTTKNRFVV

- decay half-length of the factor on elongating 80S ribosomes [1]: 36 nucleotides
- decay half-length of the factor on elongating 80S ribosomes [2]: 36 nucleotides
- decay half-length of the factor on elongating 80S ribosomes [3]: 36 nucleotides
Substance: 80S ribosome (complex)
